Experimental data reported in patent publication US20240084003A1 (SIMCERE ZAIMING PHARMACEUTICAL, published 2024).

T1: murine CD22 protein (ACROBiosystems, SI2-M52Ha) (murine, UniProt P35329 22-708)
T1 construct: extracellular domain; also called murine CD22-ECD; murine CD22-ECD-His
T1 sequence (looked up): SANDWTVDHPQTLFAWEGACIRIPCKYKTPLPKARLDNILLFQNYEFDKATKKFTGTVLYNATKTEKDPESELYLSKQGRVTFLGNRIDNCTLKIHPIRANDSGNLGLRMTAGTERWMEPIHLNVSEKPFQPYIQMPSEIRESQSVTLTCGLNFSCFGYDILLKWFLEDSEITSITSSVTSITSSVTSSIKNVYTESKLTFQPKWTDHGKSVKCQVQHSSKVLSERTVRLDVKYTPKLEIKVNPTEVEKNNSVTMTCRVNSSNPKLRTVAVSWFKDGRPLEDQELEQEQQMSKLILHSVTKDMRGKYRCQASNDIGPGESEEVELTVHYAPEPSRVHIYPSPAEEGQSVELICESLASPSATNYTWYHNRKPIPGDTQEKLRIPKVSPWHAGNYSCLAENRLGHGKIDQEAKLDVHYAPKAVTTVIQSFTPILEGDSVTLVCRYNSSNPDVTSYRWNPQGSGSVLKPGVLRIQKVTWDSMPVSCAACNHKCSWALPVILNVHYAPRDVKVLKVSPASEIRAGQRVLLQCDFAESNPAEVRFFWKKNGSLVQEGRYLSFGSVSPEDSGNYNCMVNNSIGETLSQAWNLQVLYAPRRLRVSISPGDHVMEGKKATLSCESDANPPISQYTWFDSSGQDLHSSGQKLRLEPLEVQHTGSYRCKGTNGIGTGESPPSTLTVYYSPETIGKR

T2: human CD22, full length, on CHO-K1-human CD22 2C4 cells (human, UniProt P20273 20-847)
T2 construct: Full-length human CD22 (NCBI NP_001762.2) stably transfected into CHO-K1
T2 sequence: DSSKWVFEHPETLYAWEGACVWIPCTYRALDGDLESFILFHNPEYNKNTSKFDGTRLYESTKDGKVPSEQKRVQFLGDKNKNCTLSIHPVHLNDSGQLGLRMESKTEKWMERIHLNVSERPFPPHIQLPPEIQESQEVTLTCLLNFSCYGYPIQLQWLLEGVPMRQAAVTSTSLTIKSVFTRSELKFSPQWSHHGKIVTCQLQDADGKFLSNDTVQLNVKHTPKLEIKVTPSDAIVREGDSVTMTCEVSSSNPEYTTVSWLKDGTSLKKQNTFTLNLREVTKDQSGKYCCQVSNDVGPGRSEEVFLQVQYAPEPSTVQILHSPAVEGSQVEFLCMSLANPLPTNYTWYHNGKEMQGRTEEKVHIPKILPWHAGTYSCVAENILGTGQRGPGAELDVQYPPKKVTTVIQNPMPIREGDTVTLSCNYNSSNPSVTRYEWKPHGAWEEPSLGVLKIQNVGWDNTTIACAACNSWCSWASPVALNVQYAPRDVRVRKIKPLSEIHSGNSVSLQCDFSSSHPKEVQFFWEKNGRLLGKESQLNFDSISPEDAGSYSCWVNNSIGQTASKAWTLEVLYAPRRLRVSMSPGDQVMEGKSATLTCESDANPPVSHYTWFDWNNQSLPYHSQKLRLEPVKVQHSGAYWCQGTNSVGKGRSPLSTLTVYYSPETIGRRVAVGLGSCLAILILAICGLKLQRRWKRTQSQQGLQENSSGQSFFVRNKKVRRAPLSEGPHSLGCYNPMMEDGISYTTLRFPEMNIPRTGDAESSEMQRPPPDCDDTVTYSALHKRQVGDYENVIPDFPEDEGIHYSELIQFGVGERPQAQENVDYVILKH

T3: human CD22, endogenous on Raji cells (human, UniProt P20273 20-847)
T3 construct: whole, on cells; Endogenous protein of the Raji cell line
T3 sequence (looked up): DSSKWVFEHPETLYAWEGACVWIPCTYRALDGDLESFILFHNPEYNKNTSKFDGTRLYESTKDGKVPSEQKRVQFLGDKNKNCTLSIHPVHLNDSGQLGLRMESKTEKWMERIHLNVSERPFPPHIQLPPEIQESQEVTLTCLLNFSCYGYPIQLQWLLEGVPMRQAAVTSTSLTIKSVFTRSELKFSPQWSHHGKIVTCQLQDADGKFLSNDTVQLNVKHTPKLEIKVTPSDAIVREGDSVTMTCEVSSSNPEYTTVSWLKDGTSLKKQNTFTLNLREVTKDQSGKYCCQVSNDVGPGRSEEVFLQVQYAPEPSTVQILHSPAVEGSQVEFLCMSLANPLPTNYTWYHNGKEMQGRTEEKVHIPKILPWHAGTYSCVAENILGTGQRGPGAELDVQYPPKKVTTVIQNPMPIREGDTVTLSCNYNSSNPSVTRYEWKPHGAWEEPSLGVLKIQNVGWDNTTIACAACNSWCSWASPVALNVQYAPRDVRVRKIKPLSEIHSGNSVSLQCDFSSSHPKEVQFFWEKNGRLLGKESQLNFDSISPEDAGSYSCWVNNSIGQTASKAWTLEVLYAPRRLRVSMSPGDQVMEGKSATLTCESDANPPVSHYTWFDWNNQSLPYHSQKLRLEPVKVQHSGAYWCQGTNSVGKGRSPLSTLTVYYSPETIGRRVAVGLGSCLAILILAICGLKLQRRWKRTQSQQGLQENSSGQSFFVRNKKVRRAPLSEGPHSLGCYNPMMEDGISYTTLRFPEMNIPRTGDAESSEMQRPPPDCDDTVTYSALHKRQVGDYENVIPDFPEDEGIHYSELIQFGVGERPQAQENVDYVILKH

B1: F1.60.9 human-murine chimeric antibody (antibody, human IgG1, kappa, V domains shown)
VH: QVQLKESGPGLVAPSQSLSITCTVSGLSLNNYGVSWVRQPPGKGLEWLGVIWGDGSTNYHSALISRLSISKDNSKSQVFLKLNSLHTDDTATYYCAINWGDYWGQGTTLIVSS
VL: DIKMTQSPSSMNASLGERVTITCKASQDINSYLSWFQQKPGKSPKILIYRANRLIDGVPSRFSGSGSGQDYSLTISSLEYEDMGIYYCLQYGVFPLTFGAGTKLELKR
notes: Chimeric, human IgG1 / kappa
B2: F1.200.11 human-murine chimeric antibody (antibody, human IgG1, kappa, V domains shown)
VH: QNQLVQSGPELKKPGETVKISCKASGYTFTTAGMQWVQKMPGKGFKWIGWINTLSGEPKYAEDFKGRFAFSLETSATTAYLQISNLKNEDTATYFCARAYYSNLYWYFDVWGTGTTVTVSS
VL: DIVMTQSQKFMSTTVGDRVTITCKASQNVVTAVAWYQQKPGQSPKVLIYSASNRYSGVPDRFTGSGSGTDFTLTISNMHSEDLANYFCHQYSSYPFTFGSGTKLEIKR
notes: Chimeric, human IgG1 / kappa
B3: F1.172.13 human-murine chimeric antibody (antibody, human IgG1, kappa, V domains shown)
VH: QVTLKESGPGILQSSQTLSLTCSFSGFSLSTSGMGVSWIRQPSGKGLEWLAHIYWDDDKRYNPSLKSRLTISKDTSRNQVFLKITSVDTADTATYYCARAPPPNWDEYYFDYWGQGTTLTVSS
VL: DIQMTQSPASLSASVGETVTITCRASGNIHNSLAWYQQKQGKSPQLLVHNAKTLADGVPSRFSGSGSGTQYSLKINSLQPEDFGSYYCQHFWSTPPFGGGTKLEIKR
notes: Chimeric, human IgG1 / kappa
B4: F1.192.1 human-murine chimeric antibody (antibody, human IgG1, kappa, V domains shown)
VH: AVQLQQSGVELVRPGASVKLSCTGSDFNIKEDYIHWVKQRPEQGLEWIGWIDPENGDTEYASKFQGKATITADTSSNTAYLQLSSLTSEDTAVYYCATYGSLDYWGQGTTLTVSS
VL: DIKMTQSPSSMYAFLGERVTITCKASQGINSFLTWFQQKPGKSPKTLIYRANRLVDGVPSRFSGSGSGQDYSLTISSLEYEDVGIYYCLQYDEFPRTFGGGTKLEIKR
notes: Chimeric, human IgG1 / kappa
B5: F1.245.2 human-murine chimeric antibody (antibody, human IgG1, kappa, V domains shown)
VH: EVQLQQSGAELVKPGASVKLSCTGSGFNIKDYYIHWVKQRTEQGLEWMGRIDPEDGETEYAPKFQDEATITSDTSSNTAYLQLSSLTYEDTAVYYCAREAAGYFYRGSSYGYFDVWGTGTTVTVSS
VL: DFQMTQTTSFLSASLGDRVTISCSASQDISNYLNWYQQKPDGTVKLLIYYTSSLHSGVPSRFSGSGSGTDYSLTISNLEPEDIATYYCQQYSMLPYTFGGGTKLEMER
notes: Chimeric, human IgG1 / kappa

How the values were obtained:
[1] = target: T1, murine CD22 protein (ACROBiosystems, …); assay: ELISA, coated murine CD22, 0.0001 nM Ab
Experimental: (§1) In order to detect the binding activity of CD22 human-murine chimeric antibodies to CD22 protein, the purified human CD22-ECD-His protein obtained in Example 2 was diluted with PBS to a final concentration of 2 μg/mL, and then added to 96-well ELISA plate at 100 μl/well. The plate was sealed with plastic film and incubated overnight at 4° C., the plate was washed 2 times with PBS the next day, and then a blocking solution [PBS+2% (w/w) BSA] was added for blocking at room temperature for 2 hours. […] After incubation at 37° C. for 2 hours, the plate was washed 3 times with PBS. HRP (horseradish peroxidase)-labeled secondary antibody (purchased from Sigma, catalog number: A0170) was added, and incubated at 37° C. for 2 hours, and the plate was washed 5 times with PBS. TMB substrate was added at 50 μl/well, and incubated at room temperature for 30 minutes, then a stop solution (1.0 N HCl) was added at 50 μl/well.
(§2) In order to detect the species cross-binding activity of the chimeric antibodies, an ELISA plate was coated with commercial murine CD22 protein (ACROBiosystems, catalog number: SI2-M52Ha) and monkey CD22 protein (ACROBiosystems, catalog number: SI2-R52Ha), respectively, and the ELISA detection was performed according to the method in Example 5.1.

[2] = target: T2, human CD22, full length, on …; assay: FACS, CHO-K1-human CD22 2C4 cells
Description: (§3) The required cells were scale-up cultured in a T-75 cell culture flask to the logarithmic growth phase. For the adherent cell CHO-K1, the medium was aspirated, the cells were washed 2 times with PBS buffer, and then digested with trypsin. After the digestion was terminated, the cells were washed 2 times with PBS buffer. For suspension cell Raji, the medium supernatant was directly centrifuged and discarded, and the cell pellet was washed 2 times with PBS. After counting the cells in the previous step, the cell pellet was resuspended with [PBS+2% (w/w) BSA] blocking solution to 2×10⁶ cells/ml, and added to a 96-well FACS reaction plate at 50 μl/well, and then the chimeric antibody test sample was added at 50 μl/well, and incubated on ice for 2 hours. The mixture was centrifuged and washed 3 times with PBS buffer, Alexa Flour 488-labeled secondary antibody (purchased from Invitrogen, catalog number: A-11013) was added at 50 μl/well, and incubated on ice for 1 hour. The obtained mixture was centrifuged and washed 5 times with PBS, and FACS (FACS Canto™, purchased from BD Company) was used for detection and result analysis. Data analysis was performed by software (CellQuest) to obtain the mean fluorescence density (MFI)of the cells. And then software (GraphPad Prism8) was used for analysis, data fitting, and EC50 value calculation. […] The same method was used to detect the binding of the chimeric antibodies to endogenous CD22-negative cell MoLT4 cells (purchased from ATCC, CRL-1582) and CHO-K1 cells.

[3] = target: T3, human CD22, endogenous on Raji cells; assay: FACS, Raji cells
Description: as §3

[4] = target: T1, murine CD22 protein (ACROBiosystems, …); assay: ELISA, coated murine CD22, 10 nM Ab
Experimental: as §1, §2

[5] = target: T1, murine CD22 protein (ACROBiosystems, …); assay: ELISA, coated murine CD22, 100 nM Ab
Experimental: as §1, §2

[6] = target: T1, murine CD22 protein (ACROBiosystems, …); assay: ELISA, coated murine CD22, 0.00001 nM Ab
Experimental: as §1, §2

[7] = target: T1, murine CD22 protein (ACROBiosystems, …); assay: ELISA, coated murine CD22, 0.01 nM Ab
Experimental: as §1, §2

[8] = target: T1, murine CD22 protein (ACROBiosystems, …); assay: ELISA, coated murine CD22, 0.1 nM Ab
Experimental: as §1, §2

[9] = target: T1, murine CD22 protein (ACROBiosystems, …); assay: ELISA, coated murine CD22, 0.001 nM Ab
Experimental: as §1, §2

Binder	OD450 [1] [OD450]	EC50 [2] [nM]	Maximum mean fluorescence intensity [2] [MFI]	EC50 [3] [nM]	Maximum mean fluorescence intensity [3] [MFI]	OD450 [4] [OD450]	OD450 [5] [OD450]	OD450 [6] [OD450]	OD450 [7] [OD450]	OD450 [8] [OD450]	OD450 [9] [OD450]
B1	0.06	0.61	30100	0.29	25300	0.06	0.08	0.06	0.06	0.05	0.05
B2	0.05	11.2	23000	2.41	20800	0.06	0.07	0.06	0.05	0.05	0.05
B3	0.06	0.59	33800	0.17	23800	0.06	0.08	0.06	0.05	0.05	0.05
B4	0.07	0.81	27200	0.37	24400	0.08	0.08	0.07	0.07	0.07	0.06
B5	0.07	0.33	43300	0.07	29900	0.07	0.09	0.06	0.06	0.06	0.06
